Source: US20180148504A1 (EISAI R AND D MANAGEMENT, published 2018)

B1: Monoclonal antibody 26A9.C4 (antibody, mouse IgG1, V domains shown)
VH: SGARELVKPGASVKLSCKTSGFTFSSSFISWLKQKPGQSLEWIAWIYGGNGGTSYNQNFTGKAQLTVDTSSSTAYMQFSSLTTEDSAVYYCASETYGNYWYFDVWGAGTTVTVSS
VL: QSPASLSASVGDTVTITCRASGNIHNYLAWYQQKQGKSPQLLVYNAKTLADGVPSRFSGSGSGTQYSLKINSLQPEDFGNYYCQHFWSTPYTFGGGTKLEIK
notes: Murine IgG1 kappa from hybridoma; also called ATCC PTA-123092
B2: Monoclonal antibody 2F11.F8 (antibody, mouse IgG1, V domains shown)
VH: ESGPGLVKPSQSLSLTCSVTGYSITSGYYWIWIRQFPGNKLEWMGYINYDGSNNYNPSLKNRISITRDTSKNQFFLKLNSVTTEDTATYYCARGNYYAMDYWGQGTSVTVSS
VL: not shown
notes: Murine IgG1 kappa from hybridoma; also called ATCC PTA-123098 (so in the source)
B3: Monoclonal antibody 30G6.G6.G4.E9 (antibody, mouse IgG1, V domains shown)
VH: GPGLVAPSQSLSITCTVSGFSLTSYGVHWVRQPPGKGLEWLGVIWAGGITNYNSALMSRLSISKDNSKSQVFLKMNSLQTDDTAMYYCARIYYDYDAWFAYWGQGTLVTVSA
VL: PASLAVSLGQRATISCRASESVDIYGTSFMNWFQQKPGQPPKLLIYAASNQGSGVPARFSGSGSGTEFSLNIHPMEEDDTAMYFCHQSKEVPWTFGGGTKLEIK
notes: Murine IgG1 kappa from hybridoma; also called ATCC PTA-123096
B4: Monoclonal antibody 19D4.B7 (antibody, mouse IgG2a, V domains shown)
VH: GARELVKPGASVKLSCTASGFNIKHPYMHWVKQRPDQGLEWIGRIDPANGNTKYDPKFQGKATITADTSSNTAYLQLSSLTSEDTAVYYCGREEVADYTMDYWGQGTSVTVSS
VL: PASLAVSLGQRATISCRASESVDTYGNNFIHWYQQKPGQPPKLLIYLASNLESGVPARFSGSGSRTDFTLTIDPVEADDAATYYCQQNNGDPWTFGGGTKLEIKR
notes: SULFO-TAG conjugated when used as detection antibody in the ECL assay; also called ATCC PTA-11884

Experiments:
[1] = target: T1, recombinant purified FRα (ECL assay calibrator) (human, UniProt P15328 25-234); assay: ECL sandwich, FRα calibrator; capture 26A9.C4; binder = detection Ab
T1 construct: Calibrator of the ECL sandwich assays; also called FRα calibrator; FRα standard
T1 sequence (P15328 25-234 limits assumed): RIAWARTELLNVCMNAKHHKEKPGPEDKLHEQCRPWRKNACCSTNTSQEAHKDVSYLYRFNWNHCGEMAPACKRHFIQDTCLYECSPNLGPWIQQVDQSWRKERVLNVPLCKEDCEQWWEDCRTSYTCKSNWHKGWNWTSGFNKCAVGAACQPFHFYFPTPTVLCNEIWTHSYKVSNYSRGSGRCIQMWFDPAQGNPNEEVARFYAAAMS

[2] = target: T2, human folate receptor beta (FRβ), recombinant, C-terminal 6xHis (human, UniProt P14207 17-230, limits assumed); assay: direct ELISA, plates coated with 1 µg/mL FR isoform, dilution series of culture supernatant
T2 construct: Transiently expressed in 293F cells and purified; coated on ELISA plates
T2 sequence (P14207 other isoform, or with tags, fused parts or gaps limits assumed): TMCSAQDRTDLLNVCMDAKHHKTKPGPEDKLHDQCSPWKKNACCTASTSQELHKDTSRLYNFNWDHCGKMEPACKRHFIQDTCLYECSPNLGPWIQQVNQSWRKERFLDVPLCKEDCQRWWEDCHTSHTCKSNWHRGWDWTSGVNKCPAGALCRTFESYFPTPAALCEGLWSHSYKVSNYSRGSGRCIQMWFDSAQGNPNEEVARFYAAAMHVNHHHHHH

[3] = target: T3, human folate receptor gamma (FRγ), recombinant, C-terminal 6xHis (human, UniProt P41439 23-245, limits assumed); assay: as above
T3 construct: Transiently expressed in 293F cells and purified; coated on ELISA plates
T3 sequence (P41439 other isoform, or with tags, fused parts or gaps limits assumed): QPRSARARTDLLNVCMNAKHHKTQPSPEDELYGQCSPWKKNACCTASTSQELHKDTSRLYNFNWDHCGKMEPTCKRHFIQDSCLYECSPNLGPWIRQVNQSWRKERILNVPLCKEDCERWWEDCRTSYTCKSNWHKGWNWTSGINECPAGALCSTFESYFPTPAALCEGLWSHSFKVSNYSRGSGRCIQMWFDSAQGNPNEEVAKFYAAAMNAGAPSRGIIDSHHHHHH

[4] = target: T1, recombinant purified FRα (ECL assay …); assay: ECL sandwich on FRα, signal to background; capture 6A2.G7; binder = detection Ab
[5] = target: T1, recombinant purified FRα (ECL assay …); assay: ECL sandwich on FRα, signal to background; capture 28H12.G9; binder = detection Ab
[6] = target: T1, recombinant purified FRα (ECL assay …); assay: ECL sandwich on FRα, signal to background; capture 24H8.D3; binder = detection Ab
[7] = target: T1, recombinant purified FRα (ECL assay …); assay: ECL sandwich on FRα, signal to background; capture 19D2.G9; binder = detection Ab
[8] = target: T1, recombinant purified FRα (ECL assay …); assay: ECL sandwich, FRα calibrator; capture 28H12.G9; binder = detection Ab
[9] = target: T1, recombinant purified FRα (ECL assay …); assay: ECL sandwich on FRα, signal to background; capture 24H8.F3; binder = detection Ab
[10] = target: T1, recombinant purified FRα (ECL assay …); assay: ECL sandwich on FRα, signal to background; capture 1A8.G11.E7; binder = detection Ab
[11] = target: T1, recombinant purified FRα (ECL assay …); assay: ECL sandwich, FRα calibrator; capture 19D2.G9; binder = detection Ab
[12] = target: T1, recombinant purified FRα (ECL assay …); assay: ECL sandwich on FRα, signal to background; capture 1D2.G8.G10; binder = detection Ab
[13] = target: T1, recombinant purified FRα (ECL assay …); assay: ECL sandwich on FRα, signal to background; capture 1C6.E12.G8; binder = detection Ab
[14] = target: T1, recombinant purified FRα (ECL assay …); assay: ECL sandwich, FRα calibrator; capture 24H8.D3; binder = detection Ab
[15] = target: T1, recombinant purified FRα (ECL assay …); assay: ECL sandwich on FRα, signal to background; capture 30G6.G6.G4.E9; binder = detection Ab
[16] = target: T1, recombinant purified FRα (ECL assay …); assay: ECL sandwich, FRα calibrator; capture 19D4.B7; binder = detection Ab
[17] = target: T1, recombinant purified FRα (ECL assay …); assay: ECL sandwich on FRα, signal to background; capture 2F11.F8; binder = detection Ab
[18] = target: T1, recombinant purified FRα (ECL assay …); assay: ECL sandwich, FRα calibrator; capture 1D2.G8.G10; binder = detection Ab
[19] = target: T1, recombinant purified FRα (ECL assay …); assay: ECL sandwich, FRα calibrator; capture 1A8.G11.E7; binder = detection Ab
[20] = target: T1, recombinant purified FRα (ECL assay …); assay: ECL sandwich, FRα calibrator; capture 30G6.G6.G4.E9; binder = detection Ab
[21] = target: T1, recombinant purified FRα (ECL assay …); assay: ECL sandwich, FRα calibrator; capture 6A2.G7; binder = detection Ab
[22] = target: T1, recombinant purified FRα (ECL assay …); assay: ECL sandwich, FRα calibrator; capture 1C6.E12.G8; binder = detection Ab
[23] = target: T1, recombinant purified FRα (ECL assay …); assay: ECL sandwich, FRα calibrator; capture 24H8.F3; binder = detection Ab
[24] = target: T1, recombinant purified FRα (ECL assay …); assay: ECL sandwich, FRα calibrator; capture 5C12.H8; binder = detection Ab
[25] = target: T1, recombinant purified FRα (ECL assay …); assay: ECL sandwich on FRα, signal to background; capture 26A9.C4; binder = detection Ab
[26] = target: T1, recombinant purified FRα (ECL assay …); assay: ECL sandwich on FRα, signal to background; capture 5C12.H8; binder = detection Ab
[27] = target: T1, recombinant purified FRα (ECL assay …); assay: ECL sandwich, FRα calibrator; capture 2F11.F8; binder = detection Ab
[28] = target: T1, recombinant purified FRα (ECL assay …); assay: ECL sandwich on FRα, signal to background; capture 19D4.B7; binder = detection Ab

Row | Binder | Specific signal at 500 pg/mL [1] | binding result [2] | binding result [3] | Average of S/B [4] | Average of S/B [5] | Average of S/B [6] | Average of S/B [7] | Specific signal at 500 pg/mL [8] | Average of S/B [9] | Average of S/B [10] | Specific signal at 500 pg/mL [11] | Average of S/B [12] | Average of S/B [13] | Specific signal at 500 pg/mL [14] | Average of S/B [15] | Specific signal at 500 pg/mL [16] | Average of S/B [17] | Specific signal at 500 pg/mL [18] | Specific signal at 500 pg/mL [19] | Specific signal at 500 pg/mL [20] | other results
1 | B1 | 79 | no binding | no binding | 6 | 1 | 1 | 1 | 62 | 1 | 1 | 79 | 1 | 1 | 59 | 114 | 16500 | 1 | 64 | 62 | 6710 | Specific signal at 500 pg/mL [21]: 361; Specific signal at 500 pg/mL [22]: 58; Specific signal at 500 pg/mL [23]: 56; Specific signal at 500 pg/mL [24]: 68; Average of S/B [25]: 1; Average of S/B [26]: 1; Specific signal at 500 pg/mL [27]: 61; Average of S/B [28]: 250
2 | B2 | 69 | no binding | no binding | 23 | 1 | 1 | 1 | 73 | 1 | 1 | 71 | 1 | 1 | 59 | 81 | 26500 | 1 | 60 | 65 | 6790 | Specific signal at 500 pg/mL [21]: 1180; Specific signal at 500 pg/mL [22]: 56; Specific signal at 500 pg/mL [23]: 54; Specific signal at 500 pg/mL [24]: 53; Average of S/B [25]: 1; Average of S/B [26]: 1; Specific signal at 500 pg/mL [27]: 179; Average of S/B [28]: 338
3 | B3 | – | no binding | no binding | – | – | – | – | – | – | – | – | – | – | – | – | – | – | – | – | – | –
4 | B4 | 2630 | – | – | 82 | 17 | 361 | 560 | 1220 | 207 | 405 | 65500 | 29 | 28 | 49100 | 1 | 87 | 17 | 1970 | 58700 | 81 | Specific signal at 500 pg/mL [21]: 4960; Specific signal at 500 pg/mL [22]: 2020; Specific signal at 500 pg/mL [23]: 19100; Specific signal at 500 pg/mL [24]: 320; Average of S/B [25]: 34; Average of S/B [26]: 5; Specific signal at 500 pg/mL [27]: 1260; Average of S/B [28]: 1
